According to patent publication US7381540B2, “Composition for measuring glucose having improved substrate specificity” (Toyo Boseki Kabushiki Kaisha, priority 2005, dated 2008):

Assay: Maltose activity of purified PQQGDH by GDH activity measurement (PMS/DCPIP, Test Example 1)
Format: biochemical, Acinetobacter baumannii strain NCIMB11517
Settings: substrate concentration in the assay mixture 4.8 mM; PIPES-NaOH pH 6.5, 37° C.
Experimental: D-glucose+PMS+PQQGDH→D-glucono-1,5-lactone+PMS (red)
PMS (red)+DCPIP→PMS+DCPIP (red)
The presence of DCPIP (red) formed by reduction of […] (DCPIP) by phenazine methosulfate (PMS) (red) was measured by spectrophotometry at 600 nm.
• A. D-glucose reagent: 1.0 M (1.8 g D-glucose (molecular weight: 180.16)/10 ml H2O) • B. PIPES-NaOH buffer: pH 6.5, 50 mM (1.51 g of PIPES (molecular weight: 302.36) suspended in 60 ml of water dissolved in 5 N NaOH followed by the addition of 2.2 ml of 10% Triton X-100; adjusted to pH of 6.5±0.5 at 25° C. using 5 N NaOH and brought to a final volume of 100 ml by addition of water) • C. PMS solution: 24 mM (73.52 mg of phenazine methosulfate (molecular weight: […])/10 ml H2O) • D. DCPIP solution: 2.0 mM (6.5 mg of […]/10 ml H2O • E. Enzyme diluent: 50 mM PIPES-NaOH buffer containing 1 mM CaCl2, 0.1% Triton X-100 and 0.1% BSA (pH: 6.5) Procedure:
The following reaction mixture was prepared in a light-protected bottle and stored on ice (prepared at the time of use). • 1. […]
The reduction in the absorbance relative to water at 600 nm was recorded for 4 to 5 minutes with a spectrophotometer while maintaining the temperature of the mixture at 37° C., and the ΔOD per minute was calculated from the initial linear portion of the curve (OD test). […]
Activity was calculated using the following formula. […]

B1: wild type PQQGDH: wild type PQQ dependent glucose dehydrogenase (Toyobo GLD-321) (protein, listed as Acinetobacter baumannii)
chain: DIPLTPAQFAKAKTENFDKKVILSNLNKPHALLWGPDNQIWLTERATGKILRVNPVSGSAKTVFQVPEIVSDADGQNGLLGFAFHPDFKHNPYIYISGTFKNPKSTDKELPNQTIIRRYTYNKTTDTFEKPIDLIAGLPSSKDHQSGRLVIGPDQKIYYTIGDQGRNQLAYLFLPNQAQHTPTQQELNSKDYHTYMGKVLRLNLDGSVPKDNPSFNGVVSHIYTLGHRNPQGLAFAPNGKLLQSEQGPNSDDEINLVLKGGNYGWPNVAGYKDDSGYAYANYSAATNKSQIKDLAQNGIKVATGVPVTKESEWTGKNFVPPLKTLYTVQDTYNYNDPTCGEMAYICWPTVAPSSAYVYTGGKKAIPGWENTLLVPSLKRGVIFRIKLDPTYSTTLDDAIPMFKSNNRYRDVIASPEGNTLYVLTDTAGNVQKDDGSVTHTLENPGSLIKFTYNGK
maltose activity (ratio of the activity value when using maltose to the activity value when using glucose): 110%
